Assays:
[1] = biological target: T1, human VLA-1 α1 subunit (CD49a), full-length, on transfected CHO cells (human, UniProt P56199 29-1179); experiment: cell-based or functional assay
[2] = biological target: T1, human VLA-1 α1 subunit (CD49a), …; experiment: cell-based or functional assay; remark: listed apart in the source
[3] = biological target: T2, human VLA-1 (alpha 1/beta 1, CD49a/CD29) on IL-2 stimulated human PBMC / T cells (human, UniProt P56199 29-1179; P05556 21-798); experiment: cell-based or functional assay
[4] = biological target: T2, human VLA-1 (alpha 1/beta 1, …); experiment: cell-based or functional assay; remark: listed apart in the source
[5] = biological target: T2, human VLA-1 (alpha 1/beta 1, …); experiment: cell-based or functional assay; remark: listed apart in the source
[6] = biological target: T3, human CD49a I domain with residues 91-96 VQRGGR replaced by mouse GRRGGL (human, UniProt P56199 151-364, V91G; Q92R; R96L); experiment: ELISA on secreted mutant I domain
T3 construct: domain: I domain; also called V91G, Q92R, R96L; not shown: myc and His tags

[7] = biological target: T4, human CD49a I domain E66A (human, UniProt P56199 151-364, E66A); experiment: ELISA on secreted mutant I domain
T4 construct: domain: I domain; not shown: myc and His tags

[8] = biological target: T5, human CD49a I domain K88N (human, UniProt P56199 151-364, K88N); experiment: ELISA on secreted mutant I domain
T5 construct: domain: I domain; not shown: myc and His tags

[9] = biological target: T6, human CD49a I domain I11F (human, UniProt P56199 151-364, I11F); experiment: ELISA on secreted mutant I domain
T6 construct: domain: I domain; not shown: myc and His tags

[10] = biological target: T7, human CD49a I domain E48K (human, UniProt P56199 151-364, E48K); experiment: ELISA on secreted mutant I domain
T7 construct: domain: I domain; not shown: myc and His tags

[11] = biological target: T8, human CD49a I domain K142Q (human, UniProt P56199 151-364, K142Q); experiment: ELISA on secreted mutant I domain
T8 construct: domain: I domain; text prints KI42Q once; not shown: myc and His tags

[12] = biological target: T9, human CD49a I domain T204A (human, UniProt P56199 151-364, T204A); experiment: ELISA on secreted mutant I domain
T9 construct: domain: I domain; not shown: myc and His tags

[13] = biological target: T10, human CD49a I domain S162H (human, UniProt P56199 151-364, S162H); experiment: ELISA on secreted mutant I domain
T10 construct: domain: I domain; not shown: myc and His tags

B1: 2.25 (antibody, V domains shown)
VH: QVQLQQSGPGLVKPSQTLSLTCAISGDSVSSNSAAWNWIRQSPSRGLEWLGRTYYMSKWYNDYAVSVKSRITINPDTSKNQFSLQLNSVTPEDTAVYYCARARYCGGDCYDFDYWGQGTLVTVSS
VL: DIQMTHSPSSLSASVGDRVTITCRASQSISISLNWYQQKPGNAPKLLIYAASSLQSGIPSRFSGSGSGTDFTLTISSLQPEDFATYYCQQSFSTPWTFGQGTKVEIK
IC50, adhesion of CHO-VLA-1 cells to collagen IV [1]: 74900 pM

B2: 7.73 (antibody, V domains shown)
VH: QVQLQESGPGLVKPSETLSLTCTVSGGSISSHYWSWIRQPAGKGLEWIGRVYSSGSTNSNPSLKSRVTMSVDTAKNQFSLKLSSVTAADTAVYYCAREGYDFWSDYYNYYYGMDVWGQGTTVTVS
VL: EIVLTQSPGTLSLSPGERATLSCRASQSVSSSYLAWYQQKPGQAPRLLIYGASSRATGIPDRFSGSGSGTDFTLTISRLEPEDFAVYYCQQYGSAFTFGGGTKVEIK
relative inhibition at an optimal concentration, CHO-VLA-1 adhesion to collagen IV [2]: > 80% | IC50, adhesion of CHO-VLA-1 cells to collagen IV [1]: 430 pM

B3: 2.1 (antibody, V domains shown)
VH: QVQLQESGPGLVKPSQTLSLTCTVSGGSISSGGYYWSWIRQHPGKGLEWIGYIYNSGSTYYNPSLKSRGTISADTSKNQFSLKLSSVTAADTAVYYCARGSSSYYWYFDLWGRGTLVTVSS
VL: DIQMTQSPSSMSASVGDRVTITCRASQRISSNLNWYQQKPGKAPKFLIYGASSLQSGVPSRFSGSGSGTDFTLTISSLRPEDFATYYCQQSYSTPYTFGPGTKVDIK
IC50, adhesion of CHO-VLA-1 cells to collagen IV [1]: 21400 pM

B4: 7.40 (antibody, V domains shown)
VH: QVQLQESGPGLVKPSETLSLTCTVSGGSISSHYWSWIRQPAGKGLEWIGRIYTSGSTNYNPSLKSRVTMSVDTSKNQFSLKLRSVTAADTAVYYCAREGYSSSSGHYDYYYGMDVWGQGTTVTVS
VL: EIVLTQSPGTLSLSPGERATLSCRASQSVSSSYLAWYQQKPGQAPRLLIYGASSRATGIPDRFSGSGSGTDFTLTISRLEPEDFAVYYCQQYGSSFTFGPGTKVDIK
IC50, adhesion of CHO-VLA-1 cells to collagen IV [1]: 4720 pM

B5: 7.22 (antibody, V domains shown)
VH: QVQLQESGPGLGKPSQTLSLTCTVSGGSISSGGHYWSWIRQHPGKGLEWIGYIYYSGSTYYNPSLKSRVTISVDTSKNQFSLKLSSVTAADTAVYYCARDDVRYGGMDVWGQGTTVTVSS
VL: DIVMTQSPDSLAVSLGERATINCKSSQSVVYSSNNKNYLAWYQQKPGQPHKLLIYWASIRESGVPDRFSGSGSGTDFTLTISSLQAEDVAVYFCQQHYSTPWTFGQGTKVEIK
relative inhibition at an optimal concentration, CHO-VLA-1 adhesion to collagen IV [2]: > 80% | IC50, adhesion of CHO-VLA-1 cells to collagen IV [1]: 410 pM

B6: 7.3 (antibody, V domains shown)
VH: QVQLVESGGGVVQPGRSLRLSCAASGITFSSYGMHWVRQAPGKGLEWVAVMWYEGSNKYYADSVKGRFTISRDNSKNTLYLQMNSLRAEDTAVYYCARGVLRYFDWLSYWGQGTLVTVSS
VL: EIVMTQSPATLSVSPGERATLSCRASQSVSSHLAWYQQKPGQAPRLLIYGASTRATGIPARFSGSGSGTEFTLTISSLQSEDFAVYYCQQYNNWPLTFGGGTKVEIK
IC50, adhesion of CHO-VLA-1 cells to collagen IV [1]: 940 pM

B7: 7.57 (antibody, V domains shown)
VH: QVQLVQSGAEVKKPGASVRVSCKASGYTFTGYFMHWVRQAPGQGLEWMGWINPNSGGTNYAQKFQGRVTMTRDTSISTASMELSRLRSDDTAVYYCARAPLRYFDWLDYWGQGTLVTVSS
VL: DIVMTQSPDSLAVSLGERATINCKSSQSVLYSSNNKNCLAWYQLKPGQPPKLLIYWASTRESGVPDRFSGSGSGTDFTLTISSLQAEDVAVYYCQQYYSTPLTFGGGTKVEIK
IC50, adhesion of CHO-VLA-1 cells to collagen IV [1]: 3250 pM

B8: 7.34 (antibody, V domains shown)
VH: EVQLVESGGGLVKPGGSLRLSCAASGFTFSNAWMSWVRQAPGKGLEWVGRIKSKTEGGTTDNVAPVKGRFTISRDDSKNTLYLQMNSLKTEDTAVYYCTITTHYYGMDVWGQGTTVTVSS
VL: DIQMTQSPSSLSASVGDRVTITCRASQTINNYLNWYQQKPGKAPKLLIYAASSLQSGVPSRFSGSGSGTDFTLTISSLQPEDFATYSCQQSNSPPFTFGPGTKVDVK
relative inhibition at an optimal concentration, CHO-VLA-1 adhesion to collagen IV [2]: > 80% | IC50, adhesion of CHO-VLA-1 cells to collagen IV [1]: 190 pM | % adhesion of T cells to collagen IV vs no antibody, 0.5 nM mAb, no PMA [3]: 89.2% | % adhesion of T cells to collagen IV vs no antibody, 5 nM mAb, no PMA [3]: 50.6% | % adhesion of IL-2 activated T cells to collagen IV vs no antibody, 10 µg/ml, +PMA [4]: 38.3% | % adhesion of IL-2 activated T cells to collagen IV vs no antibody, 10 µg/ml, -PMA [4]: 41.3% | % adhesion of T cells to collagen IV vs no antibody, 0.5 nM mAb, 10 ng/ml PMA [5]: 98.2% | % adhesion of T cells to collagen IV vs no antibody, 5 nM mAb, 10 ng/ml PMA [5]: 89.7%

B9: 4.13 (antibody, V domains shown)
VH: QVQLVQSGAEVKKPGASVKVSCKASGYTFTSYYMNWVRQAPGQGLEWMGIISPSGGSTTYAQKFQGRVTMTRDTSTSTVYMELSSLRSEDTAVYYCARTGYSGYEGYYYGLDVWGQGTTVTVSS
VL: DVVMTQSPLSQPVTLGQPASISCRSSQSLVYSDGNTYLHWFQQRPGQSPRRLIYKVSNWDSGVPDRFSGSGSGTDFTLKISRVEAEDVGVYDCMQGTHWPSTFGGGTKVEIK
relative inhibition at an optimal concentration, CHO-VLA-1 adhesion to collagen IV [2]: > 80% | IC50, adhesion of CHO-VLA-1 cells to collagen IV [1]: < 10 pM

B10: 2.11 (antibody, V domains shown)
VH: QVQLQESGPGLVKPSQTLSLTCTVSGGSINSGGYYWSWIRQHPGKGLEWIGYIFYSGSTYYNPSLKSRVNISVDTSKNQFSLKMSSVTAADTAVYYCARDQDGFDYWGQGTLVTVSS
VL: DIVMTQTPLSLPVTPGEPASISCRSSQSLLDSDDGNTYLDWYLQKPGQSPQLLIYTLSYRASGVPDRFSGSGSGTDFTLKISRVEAEDVGVYYCMQRIEFPWTFGQGTKVEIK
notes: human IgG2 or IgG4
relative inhibition at an optimal concentration, CHO-VLA-1 adhesion to collagen IV [2]: > 80% | binding result [6]: binds | binding result [7]: binds | binding result [8]: binds | binding result [9]: binds | binding result [10]: binds | binding result [11]: no binding | binding result [12]: binds | IC50, adhesion of CHO-VLA-1 cells to collagen IV [1]: 70 pM

B11: 2.10 (antibody, V domains shown)
VH: EVQLVESGGGLVKPGGSLRLSCAASGFTLSSYSMNWVRQAPGKGLEWVSSISSSSSYIHYADSVKGRFTISRDNAKNSLYLQMNSLRAEDTAVYYCARAPVVFDYWGQGTLVTVSS
VL: EIVLTQSPGTLSLSPGERATLSCRASQSVSSSYLAWYQQKPGQAPRLLISGASSRATGIPDRFSGSGSGTDFTLTISRLEPEDFAVYYCQQYGGSLTWTFGQGTKVEIK
IC50, adhesion of CHO-VLA-1 cells to collagen IV [1]: 2370 pM

B12: 6.48 (antibody, V domains shown)
VH: EVQLVQSGAEVKKPGESLRISCKGSGYSVSSYWIGWVRQMPGKGLEWMGIIYPGDSDTRYSPSFQGQVTISADKSISTAFLQWISLKASDTAMYYCARLQGDCSGGSCYGHFDCWGQGTLVTVS
VL: DVVLTQSPLSLPVTLGQPASISCRSSQSLVNSDGDTYLSWFQQWPGQSPRRLFYEVSNWDSGVPDRFSGSGSGTDFTLKISRVEAEDVGVYYCMQGTHWLTFGGGTKVEIK
notes: human IgG2 or IgG4
relative inhibition at an optimal concentration, CHO-VLA-1 adhesion to collagen IV [2]: > 80% | binding result [6]: no binding | binding result [7]: binds | binding result [8]: binds | binding result [9]: binds | binding result [13]: binds | binding result [10]: binds | binding result [11]: binds | IC50, adhesion of CHO-VLA-1 cells to collagen IV [1]: 120 pM | % adhesion of T cells to collagen IV vs no antibody, 0.5 nM mAb, no PMA [3]: 70% | % adhesion of T cells to collagen IV vs no antibody, 5 nM mAb, no PMA [3]: 16.7% | % adhesion of IL-2 activated T cells to collagen IV vs no antibody, 10 µg/ml, +PMA [4]: 17.5% | % adhesion of IL-2 activated T cells to collagen IV vs no antibody, 10 µg/ml, -PMA [4]: 41.3% | % adhesion of T cells to collagen IV vs no antibody, 0.5 nM mAb, 10 ng/ml PMA [5]: 94.6% | % adhesion of T cells to collagen IV vs no antibody, 5 nM mAb, 10 ng/ml PMA [5]: 72.5%

B13: 6.3 (antibody, V domains shown)
VH: QVLLQESGPGLVKPSQTLSLTCTVSGGSISSGGYYWSWIRQHPGKGLEWIGYINYSGSAYYNPSLKSRVTISVDTSKNQFSLKLSSVTAADTAVYYCARDHWLLRGFDYWGQGTLVTVSS
VL: DIVMTQTPLSLSVTPGQPASISCKSSQSLLHSDGKTYLYWYLQKPGQPPQLLIYEVSNRFSGVPDRFSGSGSGTDFTLKISRVEAEDVGVYYCMQSIQLPRTFGQGTKVEIK
IC50, adhesion of CHO-VLA-1 cells to collagen IV [1]: 680 pM
